From patent US20260132208A1 (DOMAIN THERAPEUTICS, published 2026)
Several values for one entry are separate records, joined by “and”; a condition that tells them apart may be missing. Equal entries are not always repeated.

B1: anti-CCR8 mAb 1-16 (antibody, V domains shown)
VH: EVQLQQSGPELVKPGASVKISCKASVYSFTGSYMHWVKQSHVKSLEWIGRINPYNGATSYNQNFKDKASLTVDKSSSTAYMELHSLTSEDSAVYYCATTLLRLLDYWGQGTTLTVSS
VL: DIVMTQAAFSNPVTLGTSASISCRSSKSLLHSNGITYLYWYLQKPGQSPQLLIYQMSNLASGVPDRFSSSGSGTDFTLRISRVEAEDVGVYYCAQNLELPWTFGGGTKLEIK
notes: Murine hybridoma mAb
B2: anti-CCR8 mAb 1-33 (antibody, human IgG1, kappa)
heavy: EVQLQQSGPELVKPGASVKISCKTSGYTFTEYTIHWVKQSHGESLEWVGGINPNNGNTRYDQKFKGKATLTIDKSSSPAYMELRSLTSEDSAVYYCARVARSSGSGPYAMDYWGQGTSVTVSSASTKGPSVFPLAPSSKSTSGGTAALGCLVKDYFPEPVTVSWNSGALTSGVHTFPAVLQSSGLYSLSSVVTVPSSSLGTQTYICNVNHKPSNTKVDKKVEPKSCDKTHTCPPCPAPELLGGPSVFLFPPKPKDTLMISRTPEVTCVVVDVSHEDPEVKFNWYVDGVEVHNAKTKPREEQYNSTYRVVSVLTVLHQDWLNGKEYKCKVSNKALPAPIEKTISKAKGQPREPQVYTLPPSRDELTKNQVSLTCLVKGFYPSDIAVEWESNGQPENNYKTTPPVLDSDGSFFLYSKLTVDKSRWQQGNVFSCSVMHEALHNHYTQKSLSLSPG
light: DVVMTQTPLSLPVSLGDQASISCRCTQSLLHTNGDTYLHWYLQKPGQSPKLLIYKVSNRFSGVPDRFSGSGSGTDFTLKISRVEAEDLGVYFCSQSTHVPYTFGGGTKLEIKRTVAAPSVFIFPPSDEQLKSGTASVVCLLNNFYPREAKVQWKVDNALQSGNSQESVTEQDSKDSTYSLSSTLTLSKADYEKHKVYACEVTHQGLSSPVTKSFNRGEC
B3: anti-CCR8 mAb 1-35 (antibody, human IgG1, kappa)
heavy: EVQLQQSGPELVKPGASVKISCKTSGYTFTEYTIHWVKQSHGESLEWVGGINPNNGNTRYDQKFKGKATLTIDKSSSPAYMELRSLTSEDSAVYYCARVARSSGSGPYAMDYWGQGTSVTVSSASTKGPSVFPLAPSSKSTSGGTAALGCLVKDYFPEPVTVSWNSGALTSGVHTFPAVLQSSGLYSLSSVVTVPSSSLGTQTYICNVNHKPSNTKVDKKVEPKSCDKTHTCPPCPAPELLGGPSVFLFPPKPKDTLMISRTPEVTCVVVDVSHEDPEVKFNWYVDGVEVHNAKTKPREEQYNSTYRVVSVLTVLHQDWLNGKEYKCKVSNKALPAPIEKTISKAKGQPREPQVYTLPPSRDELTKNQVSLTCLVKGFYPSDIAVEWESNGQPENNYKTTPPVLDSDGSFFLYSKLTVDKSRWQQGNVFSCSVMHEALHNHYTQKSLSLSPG
light: DVVMTQTPLSLPVSLGDQASISCRCTQSLLHTNGDTYLHWYLQKPGQSPKLLIYKVSNRFSGVPDRFSGSGSGTDFTLKISRVEAEDLGVYFCSQSTHVPYTFGGGTKLEIKRTVAAPSVFIFPPSDEQLKSGTASVVCLLNNFYPREAKVQWKVDNALQSGNSQESVTEQDSKDSTYSLSSTLTLSKADYEKHKVYACEVTHQGLSSPVTKSFNRGEC
modifications: hypofucosylated (low fucosylated) Fc glycan
B4: anti-CCR8 mAb 1-17 (antibody, V domains shown)
VH: QVQLQQPGSELVRPGASVKLSCKASGYTFTSYWMHWVKQRPGQGLEWIGNIWPGSASTNYDEKFKNKATLTVDTSSSTAYMQLSSLTSEDSAVYYCIRGGKGAMDYWSQGTSVTVSS
VL: DVVMTQIPLSLPVSLGDQASISCRSSQSLENSYGNTYLNWYLQKPGQSPQLLIYRVSNRFSGVLDRFSGSGSGTDFTLKISRVEAEDLGVYFCLQVTHVPPTFGAGTKLELK
notes: Murine hybridoma mAb
B5: anti-CCR8 mAb 1-10 (antibody, V domains shown)
VH: EVQLQQSGPELVKPGASVKISCKTSGYTFTEYTIHWVKQSHGESLEWVGGINPNNGNTRYDQKFKGKATLTIDKSSSPAYMELRSLTSEDSAVYYCARVARSSGSGPYAMDYWGQGTSVTVSS
VL: DVVMTQTPLSLPVSLGDQASISCRCTQSLLHTNGDTYLHWYLQKPGQSPKLLIYKVSNRFSGVPDRFSGSGSGTDFTLKISRVEAEDLGVYFCSQSTHVPYTFGGGTKLEIK
notes: Murine hybridoma mAb
B6: anti-CCR8 mAb 1-45 (antibody, human IgG1, kappa)
heavy: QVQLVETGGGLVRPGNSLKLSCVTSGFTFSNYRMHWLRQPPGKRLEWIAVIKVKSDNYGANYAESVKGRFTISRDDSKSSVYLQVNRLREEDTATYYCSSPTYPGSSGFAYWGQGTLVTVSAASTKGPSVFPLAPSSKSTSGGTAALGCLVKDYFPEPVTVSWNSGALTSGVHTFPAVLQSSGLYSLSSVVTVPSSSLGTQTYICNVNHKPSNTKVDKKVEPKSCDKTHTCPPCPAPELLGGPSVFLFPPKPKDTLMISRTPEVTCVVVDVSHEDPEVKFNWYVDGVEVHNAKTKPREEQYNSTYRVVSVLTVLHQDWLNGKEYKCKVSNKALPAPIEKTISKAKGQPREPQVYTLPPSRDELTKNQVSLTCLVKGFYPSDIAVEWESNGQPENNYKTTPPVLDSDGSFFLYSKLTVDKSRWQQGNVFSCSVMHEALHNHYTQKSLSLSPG
light: DIQMTQTTSSLSASLGDRVTISCRASQDISNYLNWYQQKPDGTVKLLIYYTSRLHSGVPSRFSGSGSGTDYSLTISNLEQEDIATYFCQQGNKFPPTFGGGTKLEINRTVAAPSVFIFPPSDEQLKSGTASVVCLLNNFYPREAKVQWKVDNALQSGNSQESVTEQDSKDSTYSLSSTLTLSKADYEKHKVYACEVTHQGLSSPVTKSFNRGEC
B7: anti-CCR8 mAb 1-48 (antibody, human IgG1, kappa)
heavy: QVQLVETGGGLVRPGNSLKLSCVTSGFTFSNYRMHWLRQPPGKRLEWIAVIKVKSDNYGANYAESVKGRFTISRDDSKSSVYLQVNRLREEDTATYYCSSPTYPGSSGFAYWGQGTLVTVSAASTKGPSVFPLAPSSKSTSGGTAALGCLVKDYFPEPVTVSWNSGALTSGVHTFPAVLQSSGLYSLSSVVTVPSSSLGTQTYICNVNHKPSNTKVDKKVEPKSCDKTHTCPPCPAPELLGGPDVFLFPPKPKDTLMISRTPEVTCVVVDVSHEDPEVKFNWYVDGVEVHNAKTKPREEQYNSTYRVVSVLTVLHQDWLNGKEYKCKVSNKALPLPEEKTISKAKGQPREPQVYTLPPSRDELTKNQVSLTCLVKGFYPSDIAVEWESNGQPENNYKTTPPVLDSDGSFFLYSKLTVDKSRWQQGNVFSCSVMHEALHNHYTQKSLSLSPG
light: DIQMTQTTSSLSASLGDRVTISCRASQDISNYLNWYQQKPDGTVKLLIYYTSRLHSGVPSRFSGSGSGTDYSLTISNLEQEDIATYFCQQGNKFPPTFGGGTKLEINRTVAAPSVFIFPPSDEQLKSGTASVVCLLNNFYPREAKVQWKVDNALQSGNSQESVTEQDSKDSTYSLSSTLTLSKADYEKHKVYACEVTHQGLSSPVTKSFNRGEC

Assays:
[1] = biological target: T1, human CCR8 (human, UniProt P51685 1-355); test: cell-based or functional assay
[2] = biological target: T1, human CCR8; test: cell-based or functional assay; remark: listed apart in the source
[3] = biological target: T1, human CCR8; test: cell-based or functional assay; remark: listed apart in the source
[4] = biological target: T1, human CCR8; test: cell-based or functional assay; remark: listed apart in the source
[5] = biological target: T1, human CCR8; test: flow cytometry, hCCR8-transfected CHO-K1 cells
Method: Briefly, 1.10⁵ cells per well in a 96 well plate were incubated with a dilution of unconjugated anti-CCR8 mAb at 10 μg/mL then diluted at 1/3.33, 4 dilution points (during 30 min at 4° C.). In human activated T cells model, prior to mAb incubation, cells were first incubated with 200 nM of hCCL1 (R&D Systems, Minneapolis, MN, USA) or buffer PBS (Invitrogen by Thermofisher Scientific, Illkirch-Graffenstaden, France) supplemented by 2% Fetal Bovine Serum (Invitrogen by Thermofisher Scientific, Illkirch-Graffenstaden, France) and 2 mM EDTA (Invitrogen by Thermofisher Scientific, Illkirch-Graffenstaden, France) during 1 hour at 4° C. To determine EC50 value, 8 concentrations of anti-CCR8 mAb were tested. Unbound antibodies were washed away with PBS (Invitrogen by Thermofisher Scientific, Illkirch-Graffenstaden, France) supplemented by 2% Fetal Bovine Serum (Invitrogen by Thermofisher Scientific, Illkirch-Graffenstaden, France) and 2 mM EDTA (Invitrogen by Thermofisher Scientific, Illkirch-Graffenstaden, France). Subsequently, cells are centrifuged (5 min at 400 g) and bound antibody is detected with F(ab′)2-Goat anti-Mouse IgG (H+L) Cross-Adsorbed Secondary Antibody, Alexa Fluor 488 (dilution 1/500) (Invitrogen by Thermofisher Scientific, Illkirch-Graffenstaden, France) or with F(ab′)₂-Goat anti-Human IgG Fc Secondary Antibody, PE (Invitrogen by Thermofisher Scientific, Illkirch-Graffenstaden, France) (dilution 1/1000) at 4° C. for 30 min. Detection reagent is washed away and cells are centrifuged (5 min at 400 g) and resuspended in 30 μL PBS. Bound detection antibody is quantified on a MacsQuant16 (Miltenyi, Gladbach, Germany) (B1 or B2 channel, 5000 events per acquisition). During the experiment, the respective isotype mAb controls (mouse IgG1, mouse IgG2a, mouse IgG2b, mouse IgG3 or human IgG1) (Biolegend, Amsterdam, The Netherlands) are included to exclude any unspecific binding events. EC50 values were determined via nonlinear fit “log (agonist) vs.response—Variable slope (four parameters)” function of Graphpad prism. EC50 values were not constantly determined in the same experiments.

[6] = biological target: T1, human CCR8; test: flow cytometry, inhibition of hCCL1-AF647 (10 nM) binding to hCCR8-CHO cells
Method: The hCCR8 transfected CHO cell line was dispatched at a density of 1.105 per well in a 96-well plate. Cells were incubated for 30 min at 4° C. with or without anti-CCR8 mAb tested at 10 μg/mL then diluted at 1/3. Unbound antibodies were washed away with PBS (Gibco, Villebon-sur-yvette, France) supplemented by 2% Fetal Bovine Serum (Invitrogen by Thermofisher Scientific, Illkirch-Graffenstaden, France) and 2 mM EDTA. […] After washing unbound ligands, CCL1 bound detection is quantified on a MacsQuant16 (Miltenyi, Gladbach, Germany) (R1 channel, 5 000 events per acquisition).
For IC₅₀ determination, a concentration response curve is performed using 8 concentrations of mAb. Curves are fitted and IC₅₀ of CCL1 binding blocking activity is calculated using the sigmoidal dose-response (variable slope) model on GraphPad Prism 9 (GraphPad Software, San Diego, CA, USA).

[7] = biological target: T1, human CCR8; test: cell-based or functional assay; remark: listed apart in the source
[8] = biological target: T2, pm3 (Y17 sulfated; Y15 and Y16 not sulfated); test: ELISA on coated peptide [cont.]
T2 construct: also called sulfated CCR8 N-terminal peptide pm3
T2 sequence (peptide, as listed by the source): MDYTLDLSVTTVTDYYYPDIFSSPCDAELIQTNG
Method: (§1) The specific binding properties of antibodies were evaluated by ELISA with coated CCR8 related peptides (500 ng/ml) in carbonate/bicarbonate buffer. Different peptides were used as described in Table 1 (see Example 1). Each anti-CCR8 mAb was tested at 1 μg/mL then diluted at 1/10. After an incubation at room temperature during 90 min, unbound mAbs were removed by washings. […] After washings, 3,3′,5,5′-tetramethylbenzidine (TMB) (Interchim, Montluçon, France) was added for 15 min. Then the optical density (OD) was determined by using a multiplate reader (Tecan, Lyon, France) and correlated with mAb reactivity on the panel of coated peptides.

[9] = biological target: T3, pm5 (Y15 and Y17 sulfated; Y16 not sulfated); test: ELISA on coated peptide [cont.]
T3 construct: also called sulfated CCR8 N-terminal peptide pm5
T3 sequence (peptide, as listed by the source): as above
Method: as §1

[10] = biological target: T4, pm6 (Y16 and Y17 sulfated; Y15 not sulfated); test: ELISA on coated peptide [cont.]
T4 construct: also called sulfated CCR8 N-terminal peptide pm6
T4 sequence (peptide, as listed by the source): as above
Method: as §1

[11] = biological target: T5, pm8 (Y15, Y16 and Y17 sulfated); test: ELISA on coated peptide [cont.]
T5 construct: also called sulfated CCR8 N-terminal peptide pm8
T5 sequence (peptide, as listed by the source): as above
Method: as §1

Binder	IC50 of CCL1-induced hCCR8 Gi2 signaling (BRET, HEK-293) [1]	residual hCCL1 (100 nM) Gi2 response, protocol #2, mAb 0.08 µg/mL [2]	residual hCCL1 (100 nM) Gi2 response, protocol #2, mAb 0.4 µg/mL [2]	residual hCCL1 (100 nM) Gi2 response, protocol #2, mAb 10 µg/mL [2]	residual hCCL1 (100 nM) Gi2 response, protocol #3, mAb 0.05 µg/mL [2]	residual hCCL1 (100 nM) Gi2 response, protocol #3, mAb 0.5 µg/mL [2]	residual hCCL1 (100 nM) Gi2 response, protocol #3, mAb 5 µg/mL [2]	extrapolated top plateau of hCCL1 curve with 5 µg/mL mAb, protocol #3 [3]	% positive cells [5]	MFI fold change to isotype ctrl [5]	IC50 [6]	ADCC % max lysis, HUT78 targets, NK donor 3 [7]	ADCC % max lysis, HUT78 targets, NK donor 4 [7]	ADCC EC50, HUT78 targets, NK donor 3 [7]	ADCC EC50, HUT78 targets, NK donor 4 [7]	further results
B1	0.092 µg/mL and 0.616 nM	97%	96%	84%	96%	81%	73%	292 % of hCCL1 (100 nM)	34.7%	2.34 fold	6.41 µg/mL and 43 nM	–	–	–	–	IC50 of CCL1-induced hCCR8 Gi2 signaling (BRET), pH 6.5 [4]: 0.162 µg/ml and 1.08 nM; IC50 of CCL1-induced hCCR8 Gi2 signaling (BRET), pH 7.4 [4]: 0.152 µg/ml and 1.01 nM
B2	–	–	–	–	–	–	–	–	–	–	–	14%	15%	793 pM	1520 pM	–
B3	–	–	–	–	–	–	–	–	–	–	–	29%	29%	195 pM	282 pM	–
B4	0.026 µg/mL and 0.172 nM	99%	83%	56%	116%	90%	45%	193000 % of hCCL1 (100 nM)	81.6%	9.92 fold	1.18 µg/mL and 7.92 nM	–	–	–	–	–
B5	0.046 µg/mL and 0.306 nM	104%	46%	28%	80%	57%	45%	855 % of hCCL1 (100 nM)	56.2%	4.78 fold	~0.6 µg/mL and 4.01 nM	–	–	–	–	binding result [8]: binds; binding result [9]: binds; binding result [10]: binds; binding result [11]: binds
B6	–	–	–	–	–	–	–	–	–	–	–	16%	18%	291 pM	406 pM	–
B7	–	–	–	–	–	–	–	–	–	–	–	25%	30%	8.22 pM	48.9 pM	–
